In this experiment the target is HLA-DM, P28067;P28068. The experiment in a line: SPR. Conditions: parent DR1/CW trace is at 10 µM, parent: est. 0, read off a plot.

For the substance “HLA-DR1/CLIP_(102-120)M107W complex (from UniProt P04233) βE87P”, the response (10 µM DR1-βE87P/CW analyte over immobilised DM) was 50 RU.

On to “HLA-DR1/CLIP_(102-120)M107W complex (from UniProt P04233) βG84P; βE87P”, for which the response (5 µM DR1-βG84PβE87P/CW analyte over immobilised DM) is 270 RU.
